Measurements published in paper PMC8208975, “Extracellular mRNA transported to the nucleus exerts translation-independent function”.

T1: ZC3H12D short isoform (hZC36) (Homo sapiens, UniProt A2A288-4 1-321)
T1 sequence: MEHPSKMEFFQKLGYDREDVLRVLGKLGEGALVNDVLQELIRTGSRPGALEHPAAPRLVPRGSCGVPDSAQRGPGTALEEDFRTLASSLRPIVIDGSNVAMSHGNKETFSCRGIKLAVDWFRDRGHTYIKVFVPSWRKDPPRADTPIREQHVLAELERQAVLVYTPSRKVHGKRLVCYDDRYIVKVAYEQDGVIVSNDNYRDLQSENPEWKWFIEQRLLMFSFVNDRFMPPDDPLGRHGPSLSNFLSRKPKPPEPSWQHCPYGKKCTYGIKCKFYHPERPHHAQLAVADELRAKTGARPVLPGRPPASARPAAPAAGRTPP


What was measured:
[1] = system: ZC3H12D short isoform (hZC36), Alexa Fluor 488 labeled (Homo sapiens); assay: FCS; settings: 1 nM protein, 10 nM RNA; EMSA: 100 mM HEPES pH 7.3, 200 mM KCl, 10 mM MgCl2, 10 mM DTT, glycerol, tRNA; FCS: protein diluted in 50 mM HEPES pH 7.4, 100 mM NaCl; temperature not given
[2] = target: T1, ZC3H12D short isoform (hZC36); assay: EMSA; tRNA; very rough estimate by authors; EMSA: 100 mM HEPES pH 7.3, 200 mM KCl, 10 mM MgCl2, 10 mM DTT, glycerol, tRNA; FCS: protein diluted in 50 mM HEPES pH 7.4, 100 mM NaCl; temperature not given; settings: protein: recombinant; tags: C-terminal myc-FLAG (pCMV6-Entry)

Row | Molecule | Kd [1] [nM] | Kd [2] [nM]
1 | IL1b-mRNA full length | 1 | –
2 | bactin-mRNA | 1 | –
3 | UAUUUAUUUAUGUAUUUAUUGAUUGGUUGAUCUAUUUAAGUUGAUUCAAG (ssRNA) [EMSA probe 5] | – | ~31.6
